The results in this text go back to US20200199241A1 (Chugai, published 2020).

B1: IgG1-F922 (antibody)
heavy: QVQLQESGPGLVKPSETLSLTCAVSGHSISHDHAWSWVRQPPGEGLEWIGFISYSGITNYNPSLQGRVTISRDNSKNTLYLQMNSLRAEDTAVYYCARSLARTTAMDYWGEGTLVTVSSASTKGPSVFPLAPSSKSTSGGTAALGCLVKDYFPEPVTVSWNSGALTSGVHTFPAVLQSSGLYSLSSVVTVPSSSLGTQTYICNVNHKPSNTKVDKKVEPKSCDKTHTCPPCPAPELKGGPKVFLFPPKPKDTLYISRTPEVTCVVVDVSHEDPEVKFNWYVDGVEVHEAKTKPREEQYNSTYRVVSVLTVLHQDWLNGKEYKCKVSNKALPAPIEKTISKAKGQPREPQVYTLPPSRDELTKNQVSLTCLVKGFYPSDIAVEWESNGQPENNYKTTPPVLDSDGSFFLYSKLTVDKSRWQQGNVFSCSVMHEALHYHITQKSLSLSP
light: not shown
notes: EU numbering; copies: 2 + 2
B2: IgG1-F930 (antibody)
heavy: QVQLQESGPGLVKPSETLSLTCAVSGHSISHDHAWSWVRQPPGEGLEWIGFISYSGITNYNPSLQGRVTISRDNSKNTLYLQMNSLRAEDTAVYYCARSLARTTAMDYWGEGTLVTVSSASTKGPSVFPLAPSSKSTSGGTAALGCLVKDYFPEPVTVSWNSGALTSGVHTFPAVLQSSGLYSLSSVVTVPSSSLGTQTYICNVNHKPSNTKVDKKVEPKSCDKTHTCPPCPAPELLGGDSVFLFPPKPKDVLYISRTPEVTCVVVDVSHEDPEVKFNWYVDGVEVHEAKTKPREEQYNSTYRVVSVLTVLHQDWLNGKEYKCKVSNKALPAPIEKTISKAKGQPREPQVYTLPPSRDELTKNQVSLTCLVKGFYPSDIAVEWESNGQPENNYKTTPPVLDSDGSFFLYSKLTVDKSRWQQGNVFSCSVMHEALHYHYTQKSLSLSP
light: not shown
notes: EU numbering; copies: 2 + 2
B3: IgG1-F927 (antibody)
heavy: QVQLQESGPGLVKPSETLSLTCAVSGHSISHDHAWSWVRQPPGEGLEWIGFISYSGITNYNPSLQGRVTISRDNSKNTLYLQMNSLRAEDTAVYYCARSLARTTAMDYWGEGTLVTVSSASTKGPSVFPLAPSSKSTSGGTAALGCLVKDYFPEPVTVSWNSGALTSGVHTFPAVLQSSGLYSLSSVVTVPSSSLGTQTYICNVNHKPSNTKVDKKVEPKSCDKTHTCPPCPAPELRGGPKVFLFPPKPKDTLYITRTPEVTCVVVDVSHEDPEVKFNWYVDGVEVHNAKTKPREEQYNSTYRVVSVLTVLHQDWLNGKEYKCKVSNKALPAPIEKTISKAKGQPREPQVYTLPPSRDELTKNQVSLTCLVKGFYPSDIAVEWESNGQPENNYKTTPPVLDSDGSFFLYSKLTVDKSRWQQGNVFSCSVMHEALHYHITQKSLSLSP
light: not shown
notes: EU numbering; copies: 2 + 2
B4: IgG1-F925 (antibody)
heavy: QVQLQESGPGLVKPSETLSLTCAVSGHSISHDHAWSWVRQPPGEGLEWIGFISYSGITNYNPSLQGRVTISRDNSKNTLYLQMNSLRAEDTAVYYCARSLARTTAMDYWGEGTLVTVSSASTKGPSVFPLAPSSKSTSGGTAALGCLVKDYFPEPVTVSWNSGALTSGVHTFPAVLQSSGLYSLSSVVTVPSSSLGTQTYICNVNHKPSNTKVDKKVEPKSCDKTHTCPPCPAPELRGGPKVFLFPPKPKDTLYISRTPEVTCVVVDVSHEDPEVKFNWYVDGVEVHNAKTKPREEQYNSTYRVVSVLQVLHADWLNGKEYKCKVSNKALPAPIEKTISKAKGQPREPQVYTLPPSRDELTKNQVSLTCLVKGFYPSDIAVEWESNGQPENNYKTTPPVLDSDGSFFLYSKLTVDKSRWQQGNVFSCSVMHEALHYHITQKSLSLSP
light: not shown
notes: EU numbering; copies: 2 + 2
B5: IgG1-F933 (antibody)
heavy: QVQLQESGPGLVKPSETLSLTCAVSGHSISHDHAWSWVRQPPGEGLEWIGFISYSGITNYNPSLQGRVTISRDNSKNTLYLQMNSLRAEDTAVYYCARSLARTTAMDYWGEGTLVTVSSASTKGPSVFPLAPSSKSTSGGTAALGCLVKDYFPEPVTVSWNSGALTSGVHTFPAVLQSSGLYSLSSVVTVPSSSLGTQTYICNVNHKPSNTKVDKKVEPKSCDKTHTCPPCPAPERLGGDSVFLFPPKPKDVLYISRTPEVTCVVVDVSHEDPEVKFNWYVDGVEVHNAKTKPREEQYNSTYRVVSVLTVLHQDWLNGKEYKCKVSNKALPAPIEKTISKAKGQPREPQVYTLPPSRDELTKNQVSLTCLVKGFYPSDIAVEWESNGQPENNYKTTPPVLDSDGSFFLYSKLTVDKSRWQQGNVFSCSVMHEALHYHYTQKSLSLSP
light: not shown
notes: EU numbering; copies: 2 + 2
B6: IgG1-F934 (antibody)
heavy: QVQLQESGPGLVKPSETLSLTCAVSGHSISHDHAWSWVRQPPGEGLEWIGFISYSGITNYNPSLQGRVTISRDNSKNTLYLQMNSLRAEDTAVYYCARSLARTTAMDYWGEGTLVTVSSASTKGPSVFPLAPSSKSTSGGTAALGCLVKDYFPEPVTVSWNSGALTSGVHTFPAVLQSSGLYSLSSVVTVPSSSLGTQTYICNVNHKPSNTKVDKKVEPKSCDKTHTCPPCPAPELLKGDSVFLFPPKPKDVLYISRTPEVTCVVVDVSHEDPEVKFNWYVDGVEVHNAKTKPREEQYNSTYRVVSVLTVLHQDWLNGKEYKCKVSNKALPAPIEKTISKAKGQPREPQVYTLPPSRDELTKNQVSLTCLVKGFYPSDIAVEWESNGQPENNYKTTPPVLDSDGSFFLYSKLTVDKSRWQQGNVFSCSVMHEALHYHYTQKSLSLSP
light: not shown
notes: EU numbering; copies: 2 + 2
B7: IgG1-F926 (antibody)
heavy: QVQLQESGPGLVKPSETLSLTCAVSGHSISHDHAWSWVRQPPGEGLEWIGFISYSGITNYNPSLQGRVTISRDNSKNTLYLQMNSLRAEDTAVYYCARSLARTTAMDYWGEGTLVTVSSASTKGPSVFPLAPSSKSTSGGTAALGCLVKDYFPEPVTVSWNSGALTSGVHTFPAVLQSSGLYSLSSVVTVPSSSLGTQTYICNVNHKPSNTKVDKKVEPKSCDKTHTCPPCPAPELKGGPKVFLFPPKPKDTLYITRTPEVTCVVVDVSHEDPEVKFNWYVDGVEVHNAKTKPREEQYNSTYRVVSVLTVLHQDWLNGKEYKCKVSNKALPAPIEKTISKAKGQPREPQVYTLPPSRDELTKNQVSLTCLVKGFYPSDIAVEWESNGQPENNYKTTPPVLDSDGSFFLYSKLTVDKSRWQQGNVFSCSVMHEALHYHITQKSLSLSP
light: not shown
notes: EU numbering; copies: 2 + 2
B8: IgG1-F932 (antibody)
heavy: QVQLQESGPGLVKPSETLSLTCAVSGHSISHDHAWSWVRQPPGEGLEWIGFISYSGITNYNPSLQGRVTISRDNSKNTLYLQMNSLRAEDTAVYYCARSLARTTAMDYWGEGTLVTVSSASTKGPSVFPLAPSSKSTSGGTAALGCLVKDYFPEPVTVSWNSGALTSGVHTFPAVLQSSGLYSLSSVVTVPSSSLGTQTYICNVNHKPSNTKVDKKVEPKSCDKTHTCPPCPAPELLGGPSVFLFPPKPKDVLYISRTPEVTCVVVDVSHEDPEVKFNWYVDGVEVHNAKTKPREEQYNSTYRVVSVLTVLHQDWLNGKEYKCKVSNKALPAPIEKTISKAKGQPREPQVYTLPPSRDELTKNQVSLTCLVKGFYPSDIAVEWESNGQPENNYKTTPPVLDSDGSFFLYSKLTVDKSRWQQGNVFSCSVMHEALHYHYTQKSLSLSP
light: not shown
notes: EU numbering; copies: 2 + 2
B9: IgG1-F931 (antibody)
heavy: QVQLQESGPGLVKPSETLSLTCAVSGHSISHDHAWSWVRQPPGEGLEWIGFISYSGITNYNPSLQGRVTISRDNSKNTLYLQMNSLRAEDTAVYYCARSLARTTAMDYWGEGTLVTVSSASTKGPSVFPLAPSSKSTSGGTAALGCLVKDYFPEPVTVSWNSGALTSGVHTFPAVLQSSGLYSLSSVVTVPSSSLGTQTYICNVNHKPSNTKVDKKVEPKSCDKTHTCPPCPAPELLGGDSVFLFPPKPKDVLYISRTPEVTCVVVDVSHEDPEVKFNWYVDGVEVHNAKTKPREEQYNSTYRVVSVLTVLHQDWLNGKEYKCKVSNKALPAPIEKTISKAKGQPREPQVYTLPPSRDELTKNQVSLTCLVKGFYPSDIAVEWESNGQPENNYKTTPPVLDSDGSFFLYSKLTVDKSRWQQGNVFSCSVMHEALHYHITQKSLSLSP
light: not shown
notes: EU numbering; copies: 2 + 2
B10: IgG1-F924 (antibody)
heavy: QVQLQESGPGLVKPSETLSLTCAVSGHSISHDHAWSWVRQPPGEGLEWIGFISYSGITNYNPSLQGRVTISRDNSKNTLYLQMNSLRAEDTAVYYCARSLARTTAMDYWGEGTLVTVSSASTKGPSVFPLAPSSKSTSGGTAALGCLVKDYFPEPVTVSWNSGALTSGVHTFPAVLQSSGLYSLSSVVTVPSSSLGTQTYICNVNHKPSNTKVDKKVEPKSCDKTHTCPPCPAPELKGGPKVFLFPPKPKDTLYISRTPEVTCVVVDVSHEDPEVKFNWYVDGVEVHNAKTKPREEQYNSTYRVVSVLQVLHADWLNGKEYKCKVSNKALPAPIEKTISKAKGQPREPQVYTLPPSRDELTKNQVSLTCLVKGFYPSDIAVEWESNGQPENNYKTTPPVLDSDGSFFLYSKLTVDKSRWQQGNVFSCSVMHEALHYHITQKSLSLSP
light: not shown
notes: EU numbering; copies: 2 + 2
B11: IgG1-F929 (antibody)
heavy: QVQLQESGPGLVKPSETLSLTCAVSGHSISHDHAWSWVRQPPGEGLEWIGFISYSGITNYNPSLQGRVTISRDNSKNTLYLQMNSLRAEDTAVYYCARSLARTTAMDYWGEGTLVTVSSASTKGPSVFPLAPSSKSTSGGTAALGCLVKDYFPEPVTVSWNSGALTSGVHTFPAVLQSSGLYSLSSVVTVPSSSLGTQTYICNVNHKPSNTKVDKKVEPKSCDKTHTCPPCPAPELLGGPSVFLFPPKPKDTLYITRTPEVTCVVVDVSHEDPEVKFNWYVDGVEVHNAKTKPREEQYNSTYRVVSVLQVLHADWLNGKEYKCKVSNKALPAPIEKTISKAKGQPREPQVYTLPPSRDELTKNQVSLTCLVKGFYPSDIAVEWESNGQPENNYKTTPPVLDSDGSFFLYSKLTVDKSRWQQGNVFSCSVMHEALHYHITQKSLSLSP
light: not shown
notes: EU numbering; copies: 2 + 2
B12: IgG1-F923 (antibody)
heavy: QVQLQESGPGLVKPSETLSLTCAVSGHSISHDHAWSWVRQPPGEGLEWIGFISYSGITNYNPSLQGRVTISRDNSKNTLYLQMNSLRAEDTAVYYCARSLARTTAMDYWGEGTLVTVSSASTKGPSVFPLAPSSKSTSGGTAALGCLVKDYFPEPVTVSWNSGALTSGVHTFPAVLQSSGLYSLSSVVTVPSSSLGTQTYICNVNHKPSNTKVDKKVEPKSCDKTHTCPPCPAPELRGGPKVFLFPPKPKDTLYISRTPEVTCVVVDVSHEDPEVKFNWYVDGVEVHEAKTKPREEQYNSTYRVVSVLTVLHQDWLNGKEYKCKVSNKALPAPIEKTISKAKGQPREPQVYTLPPSRDELTKNQVSLTCLVKGFYPSDIAVEWESNGQPENNYKTTPPVLDSDGSFFLYSKLTVDKSRWQQGNVFSCSVMHEALHYHITQKSLSLSP
light: not shown
notes: EU numbering; copies: 2 + 2

A word on the Kd: it is the constant that tells how readily two partners part at equilibrium. Low values mean higher affinity, high ones lower affinity.

T1 sequence (chain, as listed by the source limits assumed, chain 1 of 2): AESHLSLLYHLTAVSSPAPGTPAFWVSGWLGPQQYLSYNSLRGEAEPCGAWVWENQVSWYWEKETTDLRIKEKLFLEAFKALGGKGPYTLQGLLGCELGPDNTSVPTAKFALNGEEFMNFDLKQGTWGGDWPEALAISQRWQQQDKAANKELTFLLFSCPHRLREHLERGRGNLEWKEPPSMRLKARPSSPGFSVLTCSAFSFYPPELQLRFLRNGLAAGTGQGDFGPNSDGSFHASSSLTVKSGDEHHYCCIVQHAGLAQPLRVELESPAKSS
T1 sequence (P61769 21-119 limits assumed, chain 2 of 2): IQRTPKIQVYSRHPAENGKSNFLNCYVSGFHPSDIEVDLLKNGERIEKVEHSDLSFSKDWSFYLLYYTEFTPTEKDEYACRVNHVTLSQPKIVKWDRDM

The test concerns the target T1, soluble human FcRn complexed with β2-microglobulin (human, UniProt P61769 21-119, limits assumed).
T1 construct: also called hFcRn
Description: Biacore SPR, pH 7.0.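 Note: test antibodies captured on a Protein L chip with human FcRn flowed over as analyte, KD obtained as the ratio of dissociation to association rate constants.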 In general terms: Surface plasmon resonance follows binding to a sensor surface in real time, without labels.
In the case of B1, the Kd was found to be 59 nM.

Consider B2, for which the Kd amounted to 140 nM. This Kd lies about 2.4-fold higher than the previous one.

Take B3: binding was characterised by a dissociation constant (Kd) of 100 nM.

Take B4: the Kd turned out to be 32 nM.

Molecule B5 returned a Kd of 300 nM.

On to B6, for which binding was characterised by a dissociation constant (Kd) of 310 nM.

B7 yielded a Kd of 110 nM.

With B8, the Kd was determined as 320 nM.

Regarding B9, the Kd came to 120 nM.

The molecule B10 returned a Kd of 34 nM. Compared with the last molecule, the Kd is about 3.5-fold lower.

In turn, B11 had a Kd of 29 nM. The Kd values of the last two molecules are within 1.5-fold of each other.

Regarding B12, the Kd was found to be 60 nM.
